The values that follow come from the Immune Epitope Database (IEDB).

In general, IC50 refers to the concentration that gives 50% inhibition.

The experiment addresses HLA-A*02:01. Description: IEDB peptide-MHC binding, purified MHC/competitive/fluorescence; ≥ and ≤ were set here for values at or beyond the usual limits of such assays. Particulars: source organism: Homo sapiens.
In turn, ALYLVCGERGF came in with an IC50 of 2260 nM.

With GSHLVEALYLV, the IC50 was 3730 nM.

With YLVCGERGFFY, the IC50 stood at 8590 nM.

In turn, HLCGSHLVEAL displayed an IC50 of 440 nM.

Sequence HLVEALYLVC registered a half-maximal inhibitory concentration (IC50) of 1750 nM.

ALYLVCGERG displayed an IC50 of at least 100000 nM.

SHLVEALYL: the IC50 was 59400 nM.

With HLVEALYLVCG, the IC50 came to 190 nM.

For the sequence ALYLVCGER, the IC50 is at least 90200 nM.

On to YLVCGERGFF, for which the IC50 was determined as 2300 nM.
